# Reference: patent US20110282033A1 (Ablynx, published 2011)
# T1: Recombinant human FGFR4/Fc chimera (R&D Systems Cat #685 FR) (human, UniProt P22455 22-369)
# T1 construct: extracellular domain; Bought reagent; also called Fc-FGFR4; not shown: Fc part of the bought chimera (detected with anti-human IgG)
# T1 sequence (looked up): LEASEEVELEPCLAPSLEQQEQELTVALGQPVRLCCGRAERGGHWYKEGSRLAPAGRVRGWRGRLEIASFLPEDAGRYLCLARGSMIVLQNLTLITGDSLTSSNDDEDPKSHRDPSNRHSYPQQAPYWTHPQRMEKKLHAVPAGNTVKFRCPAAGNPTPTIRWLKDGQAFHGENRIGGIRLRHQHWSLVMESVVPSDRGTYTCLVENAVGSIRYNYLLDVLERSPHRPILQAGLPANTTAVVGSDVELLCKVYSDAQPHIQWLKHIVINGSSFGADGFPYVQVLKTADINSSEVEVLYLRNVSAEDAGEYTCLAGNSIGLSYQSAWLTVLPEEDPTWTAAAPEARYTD
# Assays:
# [1] = target: T2, Recombinant human PDGFRβ/Fc chimera (R&D Systems Cat #385 PR) (human, UniProt P09619 33-532); assay: ELISA binding screen on captured PDGFRβ-Fc and ELISA ligand competition
# T2 construct: extracellular domain; Bought reagent; also called PDGFRP-Fc; not shown: Fc part of the bought chimera (captured and detected with anti-human IgG)
# Experimental: (§1) In order to determine binding specificity to PDGFRβ-Fc, the clones were tested in an ELISA binding assay setup, using the monoclonal phage pools. Shortly, 1 ug/ml of Fc-capturing Ab (Rabbit anti-human IgG, DAKO # A423) was coated on Maxisorp ELISA plates (Nunc) and free binding sites were blocked using 4% Marvel skimmed milk in PBS. Next, 0.1 ug/ml receptor in 2% Marvel/PBS was captured. After a wash step with PBS, 10 ul of supernatant from the monoclonal phage inductions of the different clones in 100 ul 2% Marvel PBS were allowed to bind to the captured PDGFRP-Fc. […] Binding specificity was determined based on OD values compared to controls having received no phage.
# Clones tested in the PDGFRβ binding assay were also screened for their ability to block PDGF-BB binding to PDGFRβ-Fc. For this, Nanobody containing periplasmic extracts, or selected purified Nanobodies, were used in an ELISA-based ligand competition setup. In short, 1.0 ug/ml (80 nM) recombinant human PDGF-BB (R&D Systems #220-BB) was coated in 96 well Maxisorp microtiter plates (Nunc) and blocked with 4% Marvel skimmed milk in PBS. In parallel, 1 ug/ml (12 nM) PDGFRβ-Fc chimera was incubated with periplasmic extracts or purified Nanobody. After 1 hour, the receptor-Nanobody pre-mixes were incubated 1 hour with the coated ligand. Bound PDGFRβ-Fc was detected using HRP-conjugated goat anti-human IgG (Jackson Immunoresearch, Cat #109-035-098). Blocking activity was determined as loss of OD signal, as compared to wells where no Nanobodies, or irrelevant Nb, had been added.
# [2] = target: T1, Recombinant human FGFR4/Fc chimera (R&D …); assay: ELISA: periplasmic extract on coated FGFR4-Fc (500 ng/ml)
# Experimental: In order to determine binding specificity to FGFR4, the clones were tested in an ELISA binding assay setup, using the monoclonal […]. Shortly, 500 ng/ml of Fc-FGFR4 (R&D Systems Cat #685 FR) was coated on Maxisorp ELISA plates (Nunc) and free binding sites were blocked using 4% Marvel skimmed milk in PBS. After a wash step with PBS, 10 ul of periplasmic extract from the monoclonal inductions of the different clones in 100 ul 2% Marvel PBS were allowed to bind to the FGFR4-Fc. […] 53-G3 was used as a reference since it was selected against PDGFRβ-Fc.
# [3] = target: T2, Recombinant human PDGFRβ/Fc chimera …; assay: competition ELISA: PDGFRβ-Fc (12 nM) pre-mixed with Nanobody, binding to coated PDGF-BB (80 nM), detection with HRP anti-human IgG
# Experimental: In order to determine the receptor blocking efficiency of clones tested positive for PDGF-BB competition, a dilution series of purified Nanobodies were tested in the ELISA-based ligand competition setup. In short, 1.0 ug/ml (80 nM) recombinant human PDGF-BB (R&D Systems #220-BB) was coated in 96 well Maxisorp microtiter plates (Nunc) and blocked with 4% Marvel skimmed milk in PBS. In parallel, 1 ug/ml (12 nM) PDGFRβ-Fc chimera was incubated with a dilution series of purified Nanobodies. After 1 hour, the receptor-Nanobody pre-mixes were incubated 1 hour with the coated ligand. Bound PDGFRβ-Fc was detected using HRP-conjugated goat anti-human IgG (Jackson Immunoresearch, Cat # 109-035-098). […] Ligand is coated at 80 nM and receptor is added at 12 nM.
# [4] = target: T1, Recombinant human FGFR4/Fc chimera (R&D …); assay: competition ELISA: FGFR4-Fc with heparin and MgCl2 pre-mixed with Nanobody, binding to coated acidic FGF (129 nM), detection with HRP anti-human IgG
# Experimental: Clones tested in the FGFR4 binding assay were also screened for their ability to block acidic FGF binding to FGFR4-Fc. For this, purified Nanobodies, were used in an ELISA-based ligand competition setup. In short, 2.0 ug/ml (129 nM) human FGF (R&D Systems Cat #232-FA/CF) was coated in 96 well Maxisorp microtiter plates (Nunc) and blocked with 4% Marvel skimmed milk in PBS. In parallel, 0.25 ug/ml (1.9 nM) FGFR4-Fc chimera plus 2.5 μg/ml heparin and 10 mM MgCl₂ were incubated with periplasmic extracts or purified Nanobody. After 1 hour, the receptor-Nanobody pre-mixes were incubated 1 hour with the coated ligand. Bound FGFR4-Fc was detected using HRP-conjugated goat anti-human IgG (Jackson Immunoresearch, Cat #109-035-098). Blocking activity was determined as loss of OD signal, as compared to wells where irrelevant Nanobody had been added. […] Ligand is coated at 129 nM and receptor is added at […].
# [5] = target: T2, Recombinant human PDGFRβ/Fc chimera …; assay: phage ELISA on PDGFRβ-Fc (0.1 ug/ml) captured by coated anti-human IgG, detection with HRP anti-M13
# Experimental: as §1
# T2 sequence (P09619 33-532, change not shown): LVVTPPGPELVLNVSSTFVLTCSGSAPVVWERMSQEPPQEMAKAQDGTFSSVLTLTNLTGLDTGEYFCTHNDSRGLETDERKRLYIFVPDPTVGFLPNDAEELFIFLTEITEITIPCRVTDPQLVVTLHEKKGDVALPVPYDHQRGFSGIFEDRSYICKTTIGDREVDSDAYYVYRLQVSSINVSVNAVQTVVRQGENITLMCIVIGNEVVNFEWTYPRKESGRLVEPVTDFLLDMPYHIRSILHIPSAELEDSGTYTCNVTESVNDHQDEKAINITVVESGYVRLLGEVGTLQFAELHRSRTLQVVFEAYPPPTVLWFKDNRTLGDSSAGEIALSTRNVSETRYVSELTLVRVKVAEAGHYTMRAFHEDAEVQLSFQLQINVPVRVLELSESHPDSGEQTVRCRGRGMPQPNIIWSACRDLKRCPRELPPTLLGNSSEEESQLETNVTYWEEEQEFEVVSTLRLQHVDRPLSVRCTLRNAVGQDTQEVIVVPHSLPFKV
Binder,binding result [1],other results
53-B7 (VHH) VHH: EVQLVESGGGLVQAGGSLRLDCAASGRTSYAMGWFRQGTGKEREFVAALSPSGYYTYYEDSVKGRFSIHRDNAKNMVYLQMNSLTPEDTAVYYCAAGRHETASGILPNYWGQGIQVTVSS,binds,
53-C7 (VHH) VHH: EVQLVESGGGLVQAGGSLRLDCAASGRTSYAMGWFRQGTGQEREFVAAISPSGYYTYYEDSVKGRFNIHRDNTKNMVYLQMNSLTPEDTAVYYCAAGRHKTVSGILPDYWGQGIQVTVSS,binds,
53-C4 (VHH) VHH: EVQLVESGGGLVQAGGSLRLDCAASGRTSYAMGWFRQGTGKEREFVAAISPSGYYTYYEDSVKGRFSIHRDNAKNMVYLQMNSLTPEDTAVYYCAAGRHQTVSGILPDYWGQGIQVTVSS,binds,
53-G8 (VHH) VHH: KVQLVESGGGLVQAGGSLRLDCAASGRTSYAMGWFRQGTGKEREFVSAISPSGYYTYYEDSVKGRFSIHRDNAKNMVYLQMNSLTPEDTAVYYCAAGRHQTVSGILPDYWGQGIQVTVSS,binds,
53-F9 (VHH) VHH: EVQLVESGGGLVQAGGSLRLDCAASGRTSYAMGWFRQGTGKEREFVAAISPSGYYTYYEDSVKGRFFMHRDNAKNMVYLQMNSLTPEDTAVYYCAAGRHNTVSGILPDYWGRGIQVTVSS,binds,
53-G7 (VHH) VHH: EVQLVESGGGLVQAGGSLRLDCAASGRTSYAMGWFRQGTGKEREFVAAISPSGYYTYYEDSVKGRFFIHRDNAKNMVYLQMNSLTPEDTAVYYCAAGRHKTVSGILPDYWGQGIQVTVSS,binds,
"73-A7 (VHH, Purified Nanobody) VHH: EVQLVESGGGLVQPGGSLRLSCAASGFTFGSYDMSWVRQAPGKGPEWVSAINSGGGTTYYADSVKGRFTISRDNAKNTLYLQMNSLKPEDTAVYYCATGRPLWDYSDYADFGSWGQGTQVTVSS",,binding result [2]: binds
"53-G10 (VHH, Purified Nanobody) VHH: EVQLVESGGGLVQAGGSLRLSCAASGLFFSFYNMGWFRQAPGKEREFVAIIRKTGGSTYYADSVKGRFTISRDNAKNTVYLQMDSLKPEDTAVYYCAAASSYYSDSYYYTRSDKYNYWGQGTQVTVSS",,IC50 (read off the curve) [3]: ~60 nM
"55-D5 (VHH, Purified Nanobody) VHH: EVQLVESGGALVQPGGSLRLSCAASGFTFRNYDMSWVRQAPGKGPEWVSSINSGGGSTYYADSVKGRFTISRDNAKNTLYLQMNSLKPEDTAVYYCATGLITTAQAMLEEYDYWGQGTQVTVSS",,IC50 (read off the curve) [4]: ~8 nM
"53-H8 (VHH, Purified Nanobody) VHH: EVQLVESGGGLVQAGGSLRLTCVVSGRTYNNYVMGWFRQAPGKEREFVAGIDWSSSWTSTTLYADSVKGRFTISRNNAKKTVSLQMNSLKPEDTAVYYCAANLGSKNPSLRPGRETYNYWGQGAQVTVSS",,IC50 (read off the curve) [3]: ~9 nM
"55-B8 (VHH, Purified Nanobody) VHH: EVQLVESGGGLVQPGGSLRLSCTASTSIFSLYDMGWYRQAPGKERELVARITSGRSINYADSVKGRFTISRDNAKNTVYLQMNSLKPEDTAAYYCNANHHDWGTNWDFWGQGTQVTVSS",,binding result [2]: binds
53-F7 (VHH) VHH: EVQLVESGGALVQPGGSLRLSCAASGSIVSIDFMGWYRQAPGKQREVVTFITSGGSPNYVDSVEGRFTISRDNAKNTMYLQMNSLKPEDTAVYYCYMQSGTAGSWGQGTQVTVSS,binds,
"53-A3 (VHH, Purified Nanobody) VHH: EVQLVESGGGLVQPGGSLRLSCAASGSIVRVDFMGWYRQAPGKQREVVTFITSGGSPNYVDSVTGRFTISRDNAKNTMYLQMNSLKPEDTAVYYCYIQSGTAGSWGQGTQVTVSS",,binding result [5]: binds
"73-E6 (VHH, Purified Nanobody) VHH: EVQLVESGGGLVQAGGSLRLSCAASGSTFTETPFTMHALSWYRQSEGKERELVAAISLAGTTNYADSVKGRFTISRDNGKKAVYLQMNSLKAEDTAVYYCNVGSWFQGYYAMDYWGEGTLVTVSS",,binding result [2]: binds
"53-A5 (VHH, Purified Nanobody) VHH: EVQLVESGGGLVQAGGSLRLTCVVSGRTYNNYVMGWFRQAPGKEREFVAGIDWSSSWSSTLYADSVKGRFTISRNNAKKTVSLQMNSLKPEDTAVYYCAANLGSKNPSLRPGREAYNYWGQGTQVTVSS",,IC50 (read off the curve) [3]: ~8 nM
"73-A9 (VHH, Purified Nanobody) VHH: EVQLVESGGGLVQPGESLSLSCTASGSAFGINSMGWYRQAPGKERELVAVMYSDSNTTYTDSVKGRFTISRDYAKNTVYLRMNSLKPEDTAVYFCHCEAIREPGDYYGWHYWGKGTLVTVSS",,binding result [2]: binds

# More lines, main results first:
binding result [1],Binder,other results
binds,53-D6 (VHH) VHH: EVQLVESGGGLVEAGGSLRLSCTASGGTFSTYAMGWFRQAPGKEREFAAAISRNGGSKGYKESVKGRFTISRDNAKNTVYLQMNSLKPEDTAVYYCAASRTYTYSTAMKDYNYWGQGTQVTVSS,
binds,53-A6 (VHH) VHH: EVQLVESGGGLVQPGGSRRLSCATSASITSISFMGWYRQAPGKQRELVAFIPSSGVPNYVGFAEGRFTISRDDAKNTVYLQMNGLKPEDTAVYYCYLQPLGGSGSWGQGTQVTVSS,
binds,53-F3 (VHH) VHH: EVQLVESGGGLVQPGGSLRLSCAAPGSIVSINNMGWYRQAPGKQRELVALITSGGTTTYADSVKGRFTISGDNAKKMVYLQMNSLKPEDTAVYYCNAVFTTDTRNWYDYWGQGTQVTVSS,
